Measured values: patent publication US20250270584A1, “Gene editing to provide insect resistance in crops” (The Regents of the University of California, priority 2022, published 2025)

Biological target: GLR3.3-3Flag (Arabidopsis thaliana) (UniProt Q9C8E7)
Assay: IP-MS, anti-Flag IP of GLR3.3-3Flag from leaves of transgenic plants; co-enrichment, may be indirect

GLR3.3-3Flag (Arabidopsis thaliana), sequence (Q9C8E7 24-933): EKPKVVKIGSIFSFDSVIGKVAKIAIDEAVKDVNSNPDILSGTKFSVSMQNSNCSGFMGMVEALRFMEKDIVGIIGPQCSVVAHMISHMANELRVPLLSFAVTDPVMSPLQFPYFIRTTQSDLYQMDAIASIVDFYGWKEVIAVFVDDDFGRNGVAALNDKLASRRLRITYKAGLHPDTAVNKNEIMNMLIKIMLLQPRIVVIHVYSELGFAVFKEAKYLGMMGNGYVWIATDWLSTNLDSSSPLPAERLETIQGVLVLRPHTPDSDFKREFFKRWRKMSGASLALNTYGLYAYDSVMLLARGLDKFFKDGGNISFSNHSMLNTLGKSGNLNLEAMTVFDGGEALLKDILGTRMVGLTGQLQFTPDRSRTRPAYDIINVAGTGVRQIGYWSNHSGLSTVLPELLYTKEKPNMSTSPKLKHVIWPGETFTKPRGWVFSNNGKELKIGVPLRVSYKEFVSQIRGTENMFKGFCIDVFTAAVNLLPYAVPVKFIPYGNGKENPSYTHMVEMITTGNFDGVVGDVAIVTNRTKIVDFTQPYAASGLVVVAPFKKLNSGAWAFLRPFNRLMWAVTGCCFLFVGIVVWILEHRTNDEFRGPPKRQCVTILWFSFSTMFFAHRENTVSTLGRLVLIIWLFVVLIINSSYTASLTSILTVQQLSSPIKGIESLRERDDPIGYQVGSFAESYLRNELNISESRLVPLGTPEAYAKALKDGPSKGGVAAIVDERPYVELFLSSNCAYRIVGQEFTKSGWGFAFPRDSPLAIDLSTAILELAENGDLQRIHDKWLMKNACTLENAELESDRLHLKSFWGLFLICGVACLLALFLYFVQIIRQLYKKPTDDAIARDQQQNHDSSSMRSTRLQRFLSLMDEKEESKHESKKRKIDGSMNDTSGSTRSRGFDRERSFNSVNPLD

Substance	unique peptide number (unique peptides)
TKL1 (transketolase involved in carbon fixation) (from UniProt Q8RWV0 67-741) (enzyme)	17
GLU1 (glutamate synthase 1) (from UniProt Q9ZNZ7 106-1622) (enzyme)	57
LOX2 (chloroplast lipoxygenase 2) (from UniProt P38418 57-896) (enzyme)	9
EIF3A (a subunit of eukaryotic initiation factor 3 (eIF3)) (from UniProt Q9LD55 1-987)	4
TIC110 (translocon at the chloroplast inner envelope) (from UniProt Q8LPR9 52-1016)	16
CAM6 (calmodulin) (from UniProt Q03509 1-149)	4
GLR2.6 (from UniProt Q9LFN8 32-967) (receptor)	12
AHA2 (plasma membrane proton ATPase 2) (from UniProt P19456 2-948) (enzyme)	17
EDD1 (glycine-tRNA ligase) (from UniProt Q8L785 51-1067) (enzyme)	4
coatomer, alpha subunit (from UniProt Q9SJT9 1-1218)	10
KEA1 (K^+ efflux antiporter 1) (from UniProt Q9ZTZ7 50-1193)	5
tRNA synthetase class I (I, L, M and V) family protein (from UniProt F4JLM5 1-1190) (enzyme)	62
PIP2; 7 (plasma membrane intrinsic protein 3) (from UniProt P93004 1-280)	7
AHA1 (plasma membrane proton ATPase 1) (from UniProt P20649 2-949) (enzyme)	23
GLR3.5 (from UniProt Q9SW97 30-953) (receptor)	9
VEN3 (carbamoyl phosphate synthetase (CPS) large subunit) (from UniProt Q42601 63-1187) (enzyme)	12
GLU2 (glutamate synthase 2) (from UniProt Q9T0P4 108-1629) (enzyme)	13
NIT1 (nitrilase isoenzyme family) (from UniProt P32961 2-346)	17
CaM7 (calmodulin 7) (from UniProt P59220 1-149)	11
PIP2; 1 (plasma membrane intrinsic protein 2A) (from UniProt P43286 1-287)	7
TGG1 (member of glycoside hydrolase family 1) (from UniProt P37702 20-541) (enzyme)	6

Substance	unique peptide number (unique peptides)
FTIP1 (multiple C2 domain and transmembrane region protein 1) (from UniProt Q9FL59 1-794)	21
AMY3 (plastid-localized α-amylase) (from UniProt Q94A41 56-887) (enzyme)	8
CLPC1 (Clp protease ATP-binding subunit homologue) (from UniProt Q9FI56 39-929)	21
ATMS1 (cobalamin-independent synthase family protein) (from UniProt O50008 1-765) (enzyme)	14
GLDP2 (P-subunit of glycine decarboxylase) (from UniProt O80988 73-1044) (enzyme)	11
GLDP1 (glycine decarboxylase P-protein 1) (from UniProt Q94B78 68-1037) (enzyme)	15
RCA (rubisco activase) (from UniProt P10896 59-474) (enzyme)	12
PWD (chloroplastidic phosphoglucan, water dikinase) (from UniProt Q6ZY51 55-1196) (enzyme)	43
GLR3.2 (from UniProt Q93YT1 23-912) (receptor)	4
CAM5 (calmodulin) (from UniProt Q682T9 1-149)	7
PIP2; 4 (plasma membrane intrinsic protein 2; 4) (from UniProt Q9FF53 1-291)	5
TPP2 (tripeptidyl peptidase II) (from UniProt F4JVN6 1-1380) (enzyme)	42
PPC2 (phosphoenolpyruvate carboxylase protein 2) (from UniProt Q5GM68 1-963) (enzyme)	12
UBA1 (ubiquitin-activating enzyme (E1)) (from UniProt P93028 1-1080)	7
CAT2 (catalase) (from UniProt P25819 1-492) (enzyme)	6
LOS1 (translation elongation factor 2-like protein) (from UniProt Q9ASR1 1-843)	21
GAPB (glyceraldehyde-3-phosphate dehydrogenase B subunit) (from UniProt P25857 81-447) (enzyme)	4
CAT3 (catalase) (from UniProt Q42547 1-492) (enzyme)	6
HSP70-2 (member of heat shock protein 70 family) (from UniProt P22954 1-653)	12
HSP70-1 (member of heat shock protein 70 family) (from UniProt P22953 2-651)	15
CAM3 (calmodulin) (from UniProt P0DH98 1-149)	7
